From IntAct's records for PubMed 22797597

B1: TRAF2 and NCK-interacting protein kinase (Homo sapiens), Q9UKE5 (parent)
chain: MASDSPARSLDEIDLSALRDPAGIFELVELVGNGTYGQVYKGRHVKTGQLAAIKVMDVTGDEEEEIKQEINMLKKYSHHRNIATYYGAFIKKNPPGMDDQLWLVMEFCGAGSVTDLIKNTKGNTLKEEWIAYICREILRGLSHLHQHKVIHRDIKGQNVLLTENAEVKLVDFGVSAQLDRTVGRRNTFIGTPYWMAPEVIACDENPDATYDFKSDLWSLGITAIEMAEGAPPLCDMHPMRALFLIPRNPAPRLKSKKWSKKFQSFIESCLVKNHSQRPATEQLMKHPFIRDQPNERQVRIQLKDHIDRTKKKRGEKDETEYEYSGSEEEEEENDSGEPSSILNLPGESTLRRDFLRLQLANKERSEALRRQQLEQQQRENEEHKRQLLAERQKRIEEQKEQRRRLEEQQRREKELRKQQEREQRRHYEEQMRREEERRRAEHEQEYIRRQLEEEQRQLEILQQQLLHEQALLLEYKRKQLEEQRQAERLQRQLKQERDYLVSLQHQRQEQRPVEKKPLYHYKEGMSPSEKPAWAKEVEERSRLNRQSSPAMPHKVANRISDPNLPPRSESFSISGVQPARTPPMLRPVDPQIPHLVAVKSQGPALTASQSVHEQPTKGLSGFQEALNVTSHRVEMPRQNSDPTSENPPLPTRIEKFDRSSWLRQEEDIPPKVPQRTTSISPALARKNSPGNGSALGPRLGSQPIRASNPDLRRTEPILESPLQRTSSGSSSSSSTPSSQPSSQGGSQPGSQAGSSERTRVRANSKSEGSPVLPHEPAKVKPEESRDITRPSRPASYKKAIDEDLTALAKELRELRIEETNRPMKKVTDYSSSSEESESSEEEEEDGESETHDGTVAVSDIPRLIPTGAPGSNEQYNVGMVGTHGLETSHADSFSGSISREGTLMIRETSGEKKRSGHSDSNGFAGHINLPDLVQQSHSPAGTPTEGLGRVSTHSQEMDSGTEYGMGSSTKASFTPFVDPRVYQTSPTDEDEEDEESSAAALFTSELLRQEQAKLNEARKISVVNVNPTNIRPHSDTPEIRKYKKRFNSEILCAALWGVNLLVGTENGLMLLDRSGQGKVYNLINRRRFQQMDVLEGLNVLVTISGKKNKLRVYYLSWLRNRILHNDPEVEKKQGWITVGDLEGCIHYKVVKYERIKFLVIALKNAVEIYAWAPKPYHKFMAFKSFADLQHKPLLVDLTVEEGQRLKVIFGSHTGFHVIDVDSGNSYDIYIPSHIQGNITPHAIVILPKTDGMEMLVCYEDEGVYVNTYGRITKDVVLQWGEMPTSVAYIHSNQIMGWGEKAIEIRSVETGHLDGVFMHKRAQRLKFLCERNDKVFFASVRSGGSSQVFFMTLNRNSMMNW

Variants of: B1
Details: with STK26, Q9P289-1
STK26, Q9P289-1, sequence (Q9P289 whole entry, looked up): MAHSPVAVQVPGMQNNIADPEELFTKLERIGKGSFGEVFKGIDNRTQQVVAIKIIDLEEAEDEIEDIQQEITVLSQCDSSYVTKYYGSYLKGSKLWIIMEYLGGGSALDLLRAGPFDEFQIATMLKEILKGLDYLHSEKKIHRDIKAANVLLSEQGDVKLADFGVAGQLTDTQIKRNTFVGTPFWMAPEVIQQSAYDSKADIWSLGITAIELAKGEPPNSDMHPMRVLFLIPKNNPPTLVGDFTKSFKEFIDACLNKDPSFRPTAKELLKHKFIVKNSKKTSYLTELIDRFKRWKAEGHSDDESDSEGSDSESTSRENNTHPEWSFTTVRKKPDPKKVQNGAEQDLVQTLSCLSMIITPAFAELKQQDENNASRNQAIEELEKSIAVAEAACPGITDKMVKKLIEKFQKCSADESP
With R152A;D153A the “effect of a mutation on the interaction” value was “increasing interaction strength”. For K54A, the “effect of a mutation on the interaction” value was “increasing interaction strength”.
